Data on one substance can be found in publication doi:10.1101/2021.05.16.444192.

For this test, the target named is neurokinin 1 receptor (human) (UniProt P25103).
UniProt P25103, sequence (P25103 whole entry): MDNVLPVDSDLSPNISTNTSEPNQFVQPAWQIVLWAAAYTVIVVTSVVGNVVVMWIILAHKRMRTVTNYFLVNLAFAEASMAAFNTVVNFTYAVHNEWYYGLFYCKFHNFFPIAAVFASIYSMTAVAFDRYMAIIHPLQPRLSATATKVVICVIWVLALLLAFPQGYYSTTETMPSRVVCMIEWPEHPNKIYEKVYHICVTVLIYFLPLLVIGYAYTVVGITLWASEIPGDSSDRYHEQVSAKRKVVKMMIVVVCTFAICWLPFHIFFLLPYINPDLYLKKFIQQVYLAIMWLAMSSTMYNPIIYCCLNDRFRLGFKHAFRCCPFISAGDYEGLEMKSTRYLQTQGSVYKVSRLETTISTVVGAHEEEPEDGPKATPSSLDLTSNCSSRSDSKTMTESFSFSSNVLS

Consider Substance P 6-11 (peptide), for which the cAMP accumulation at wild-type NK1R, potency compared to SP turned out to be 16 fold.
